Laboratory results published in patent US20180185455A1 (OCTAPHARMA, published 2018).
Blank lines part the entries; values can stand above or below the molecule they belong to.

Columns and labels:
[1] = target: recombinant Factor VIII (UniProt P00451); test: SPR (Biacore 2000), rFVIII coupled to CM5 chip, fragment injected
[2] = target: recombinant Factor VIII (UniProt P00451); test: SPR (Biacore 2000), rFVIII coupled to CM5 chip, VWF injected
[3] = target: recombinant fragment III dimer with C-terminal Strep-Tag (human) (UniProt P04275); test: SPR (Biacore 2000), fragment III dimer immobilized on CM5, FVIII concentration series injected
[4] = target: recombinant fragment III monomer with C-terminal Strep-Tag (human) (UniProt P04275); test: SPR (Biacore 2000), fragment III monomer immobilized on CM5, FVIII concentration series injected
[5] = target: plasma derived full length Von Willebrand Factor (human) (UniProt P04275); test: SPR (Biacore 2000), plasma derived flVWF immobilized on a CM5 chip, FVIII concentration series injected; mean of n=4 per the legend
[6] = target: T1, fragment III (SPIII, res. 764-2128) from plasma derived Von Willebrand Factor (human, UniProt P04275 764-2128); test: SPR (Biacore 2000), collagen type III coupled to CM5 chip, fragment injected
T1 construct: Made by S. aureus V-8 protease digestion of pdVWF; also called VWF fragment III
Method: (§1) The analysis was carried out using Biacore 2000 instrument (GE Healthcare) according to Romjin et al. 2003 with modifications. Briefly human pepsin-digested collagen type III was covalently bound to the surface of a CM5 sensor chip. Subsequently the samples were injected over the sensor chip surface. The running buffer was 10 mM HEPES, 150 mM NaCl, 3.4 mM EDTA, 0.005% Tween 20.

[7] = target: T2, plasma derived full length Von Willebrand Factor (human, UniProt P04275 764-2813); test: SPR (Biacore 2000), collagen type III coupled to CM5 chip, VWF injected
T2 construct: Plasma VWF is multimeric; also called pdVWF; flVWF
Method: as §1

- Kd [1]: 155 nM
Molecule: fragment II (res. 764-1673) of Von Willebrand Factor (from UniProt P04275 764-1673)

- Kd [1]: 6.18 nM
Molecule: fragment III (SPIII, res. 764-2128) from plasma derived Von Willebrand Factor (from UniProt P04275 764-2128)

- Kd [2]: 0.67 nM
Molecule: plasma derived full length Von Willebrand Factor (from UniProt P04275 764-2813)

- Kd [3]: 1.9 nM
- Kd [4]: 14.3 nM
- Kd [5]: 0.25 nM
Molecule: recombinant Factor VIII (from UniProt P00451 20-2351)

- Kd [6]: 17 nM
- Kd [7]: 0.75 nM
B1: human pepsin-digested collagen type III (other, UniProt P02461 168-1196, looked up)
chain: GLAGYPGPAGPPGPPGPPGTSGHPGSPGSPGYQGPPGEPGQAGPSGPPGPPGAIGPSGPAGKDGESGRPGRPGERGLPGPPGIKGPAGIPGFPGMKGHRGFDGRNGEKGETGAPGLKGENGLPGENGAPGPMGPRGAPGERGRPGLPGAAGARGNDGARGSDGQPGPPGPPGTAGFPGSPGAKGEVGPAGSPGSNGAPGQRGEPGPQGHAGAQGPPGPPGINGSPGGKGEMGPAGIPGAPGLMGARGPPGPAGANGAPGLRGGAGEPGKNGAKGEPGPRGERGEAGIPGVPGAKGEDGKDGSPGEPGANGLPGAAGERGAPGFRGPAGPNGIPGEKGPAGERGAPGPAGPRGAAGEPGRDGVPGGPGMRGMPGSPGGPGSDGKPGPPGSQGESGRPGPPGPSGPRGQPGVMGFPGPKGNDGAPGKNGERGGPGGPGPQGPPGKNGETGPQGPPGPTGPGGDKGDTGPPGPQGLQGLPGTGGPPGENGKPGEPGPKGDAGAPGAPGGKGDAGAPGERGPPGLAGAPGLRGGAGPPGPEGGKGAAGPPGPPGAAGTPGLQGMPGERGGLGSPGPKGDKGEPGGPGADGVPGKDGPRGPTGPIGPPGPAGQPGDKGEGGAPGLPGIAGPRGSPGERGETGPPGPAGFPGAPGQNGEPGGKGERGAPGEKGEGGPPGVAGPPGGSGPAGPPGPQGVKGERGSPGGPGAAGFPGARGLPGPPGSNGNPGPPGPSGSPGKDGPPGPAGNTGAPGSPGVSGPKGDAGQPGEKGSPGAQGPPGAPGPLGIAGITGARGLAGPPGMPGPRGSPGPQGVKGESGKPGANGLSGERGPPGPQGLPGLAGTAGEPGRDGNPGSDGLPGRDGSPGGKGDRGENGSPGAPGAPGHPGPPGPVGPAGKSGDRGESGPAGPAGAPGPAGSRGAPGPQGPRGDKGETGERGAAGIKGHRGFPGNPGAPGSPGPAGQQGAIGSPGPAGPRGPVGPSGPPGKDGTSGHPGPIGPPGPRGNRGERGSEGSPGHPGQPGPPGPPGAPGPC
notes: also called collagen III
